From patent publication US20220049002A1 (KINDRED BIOSCIENCES, published 2022)

T1: Canine IL4R-ECD_C-His6 (processed) (canine, biotinylated through amine chemistry in the ELISA and Octet assays)
T1 chain: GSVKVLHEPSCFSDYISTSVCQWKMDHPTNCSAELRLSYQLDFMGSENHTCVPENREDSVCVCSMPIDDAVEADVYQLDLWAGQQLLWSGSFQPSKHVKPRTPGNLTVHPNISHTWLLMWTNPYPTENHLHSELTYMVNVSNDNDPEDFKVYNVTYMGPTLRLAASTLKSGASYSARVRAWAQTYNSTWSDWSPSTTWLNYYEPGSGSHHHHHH

T2: Canine IL4R (extracellular domains produced by 293 cells; Examples 16-19) (canine, biotinylated)
T2 construct: also called biotinylated canine IL4R
T2 chain: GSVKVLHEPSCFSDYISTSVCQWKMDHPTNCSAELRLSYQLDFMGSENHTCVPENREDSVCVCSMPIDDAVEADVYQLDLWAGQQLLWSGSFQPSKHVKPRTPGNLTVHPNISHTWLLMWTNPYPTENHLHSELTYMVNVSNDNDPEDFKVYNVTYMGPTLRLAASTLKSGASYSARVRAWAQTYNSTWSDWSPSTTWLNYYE


Experiments:
[1] = molecular target: T1, Canine IL4R-ECD_C-His6 (processed); assay: BLI (Octet): biotinylated canine IL4R-ECD_C-His6 on streptavidin tips, 1:1 model
Description: The binding analysis was performed using an Octet Biosensor as follows. Briefly, canine IL4R-ECD_C-His6 (SEQ ID NO: 107) was biotinylated through amine chemistry. The free unreacted biotin was removed by extensive dialysis. Biotinylated canine IL4R-ECD_C-His6 was captured on streptavidin sensor tips. The association of either Clone B or I antibody and canine IL4R-ECD_C-His6 (25 μg/mL) was monitored for 600 seconds. Dissociation was monitored for 600 seconds. A buffer only blank curve was subtracted to correct for any drift. The data were fit to a 1:1 binding model using ForteBio™ data analysis software to determine the kₒₙ, koff, and the Kd. The buffer for dilutions and all binding steps was 20 mM phosphate, 150 mM NaCl, pH 7.2.

[2] = molecular target: Canine IL4R-ECD_C-HuFc_His6 (processed) (canine); assay: BLI (Octet): canine IL4R-ECD_C-HuFc_His6 on anti-human Fc tips
Description: An alternative binding assay was performed also using an Octet Biosensor. Canine IL4R-ECD_C-HuFc_His6 (SEQ ID NO: 109) was captured on anti-human Fc-bound sensor tips. The association of either Clone B or I antibody and canine IL4R-ECD_C-HuFc_His6 was monitored for 600 seconds. Dissociation was monitored for 600 seconds. The buffer for dilutions and all binding steps was 20 mM phosphate, 150 mM NaCl, pH 7.2. […] In addition, amine conjugation may affect the affinity of canine IL4R-ECD_C-His6 to interact with Clone B and I antibodies.

[3] = molecular target: Human IL4R-ECD_C-HuFc_His6 (processed) (human); assay: Western blot
[4] = molecular target: Canine IL4R-ECD_C-HuFc_His6 (processed) (canine); assay: Western blot
[5] = molecular target: T2, Canine IL4R (extracellular domains …); assay: BLI (ForteBio OctetRed): biotinylated canine IL4R on streptavidin tip
Description: The four mouse antibodies were purified from the hybridoma cell cultures and their affinities to canine IL4R were measured using biosensor (ForteBio OctetRed). Biotinylated canine IL4R was bound to the streptavidin sensor tip. The Kds of the 4 candidates were all less than 10 nM.

[6] = molecular target: T2, Canine IL4R (extracellular domains …); assay: BLI (ForteBio OctetRed)
Description: DNA sequences encoding a chimeric antibody were designed for a fusion of murine VH and murine VL to canine constant heavy chain IgG-B and canine constant light chain (kappa). The nucleotide sequences were synthesized chemically and inserted into an expression vector suitable for transfection into a CHO host cell. After transfection into CHO cells, the light chain or heavy chain protein or both were secreted from the cell. All four chimeric canine IgG-B were purified by single step Protein A column chromatography.

[7] = molecular target: T2, Canine IL4R (extracellular domains …); assay: method not stated (binding affinity to canine IL4R)

Human IL4R-ECD_C-HuFc_His6 (processed) (human), sequence (chain, as listed by the source limits assumed): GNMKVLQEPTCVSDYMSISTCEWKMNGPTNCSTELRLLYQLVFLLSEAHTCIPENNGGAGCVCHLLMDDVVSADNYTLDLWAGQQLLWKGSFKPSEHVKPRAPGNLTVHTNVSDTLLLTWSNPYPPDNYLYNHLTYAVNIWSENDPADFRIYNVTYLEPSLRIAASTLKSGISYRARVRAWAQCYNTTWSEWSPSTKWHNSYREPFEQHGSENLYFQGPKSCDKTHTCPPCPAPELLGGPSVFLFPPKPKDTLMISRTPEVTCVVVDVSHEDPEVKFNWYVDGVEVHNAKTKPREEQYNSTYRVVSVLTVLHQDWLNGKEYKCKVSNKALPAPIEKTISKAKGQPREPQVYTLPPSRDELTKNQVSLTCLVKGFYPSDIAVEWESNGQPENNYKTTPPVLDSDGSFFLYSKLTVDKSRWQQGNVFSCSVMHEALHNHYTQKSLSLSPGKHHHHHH

Binder | Kd [5] [nM] | Kd [6] [nM] | Kd [7] [nM] | also measured
Clone B antibody (mouse monoclonal anti-canine IL4R) (antibody, mouse IgG1, kappa, V domains shown, Mouse IgG; also called anti-IL4R-mAb Clone B) VH: EVKLEESGPELVKPGASVKMSCKASGYTFTSYVMHWVKQKPGQGLEWIGYINPKNDGTFYNGKFKGKATLTSDKSSSTAYMELSSLTSEDSAVYYCAAFNYGIAYWGQGTLVTVSS VL: IVLTQTPSSLSASLGERVSLTCRASQEISGYLSWLQQKPDGTIKRLIYAASTLDSGVPKRFSGSRSGSDFSLTISSLESEDFADYYCVQYASYPWTFGGGARLEIKR |  |  |  | Kd [1]: 2.03 nM; Kd [2]: ~0.1 nM
M5 mouse monoclonal antibody (anti-canine IL4R) (antibody, V domains shown, Mouse antibody purified from hybridoma culture; also called Clone M5) VH: QVQLKESGPGLVAPSQSLSITCTVSGFSLSRYSVHWVRQPPGKGLEWLGMIWGGGSTDYNSVFKSRLSISKDNSKSQVFLKMNSLQTDDTAMYYCARTYRGYALDYWGQGTSVTVSS VL: DIQMTQTTSSLSASLGDRVTISCRASQDISNYLNWYQQKPDGTVKLLIYYTSRLQSGVPSRFSGSGSGTDYCLTISNLEQEDIATYFCQQANTLPLTFGSGTKLELK | < 10 |  |  | 
Caninized Clone M9 antibody, variable HC v1 / variable LC v1 (variant canine IgG-B C1q-, CD16-; canine kappa) (antibody, V domains shown, also called caninized M9 (HC v1)) VH: EVQLVESGGDLVKPGGSLRLSCAASGFTFSSFGMHWVRQAPGKGLEWVAYIRSDSSTIYYADAVKGRFTISRDNAKNTLYLQMNSLRAEDTAMYYCARSGYYGSFSLTYWGQGTLVTVSS VL: DIMLTQTPLSLSVSPGEPASISCSASSSVSSNYLHWYLQKAGQSPRLLIYRTSNLPSGVPDRFSGSGSGTDFTLRIGRVEAEDAGIYYCQQGSGMLTFGQGTRLEVRR |  |  | ≤ 1 | 
Caninized Clone M9 antibody, variable HC v2 / variable LC v1 (variant canine IgG-B C1q-, CD16-; canine kappa) (antibody, V domains shown, also called caninized M9 (HC v2)) VH: EVQLVESGGDLVKPGGSLRLSCVASGFTFSSFGMHWVRQAPGKGLQWVAYIRSDSSTIYYADAVKGRFTISRDNAKNTLYLQMNSLRAEDTAMYYCARSGYYGSFSLTYWGQGTLVTVSS VL: DIMLTQTPLSLSVSPGEPASISCSASSSVSSNYLHWYLQKAGQSPRLLIYRTSNLPSGVPDRFSGSGSGTDFTLRIGRVEAEDAGIYYCQQGSGMLTFGQGTRLEVRR |  |  | ≤ 1 | 
Caninized Clone M3 antibody, variable HC v1 / variable LC v1 (variant canine IgG-B C1q-, CD16-; canine kappa) (antibody, V domains shown, also called caninized M3 (HC v1)) VH: EVQLVESGGDLVKPAGSLRLSCTVSGFSLSRYSVHWVRQAPGKGLEWLGMIWGGGSTDYNSVVKGRFTISRDNAKNTVYLQMNSLRAEDTAMYYCARTYRGYALDYWGQGTLVTVSS VL: DIVMTQTPLSLSVSPGEPASISCRASQDISNYLNWYLQKAGQSPRLLIYYTSRLQSGVPDRFSGSGSGTDFTLRIGRVEAEDAGIYFCQQANTLPLTFGQGTRLEVRR |  |  | ≤ 1 | 
Caninized Clone M3 antibody, variable HC v2 / variable LC v1 (variant canine IgG-B C1q-, CD16-; canine kappa) (antibody, V domains shown, also called caninized M3 (HC v2)) VH: ELTLQESGPGLVKPSQTLSLTCTVSGFSLSRYSVHWIRQPRGRGLELLGMIWGGGSTDYNPAFQGRISITADTAKNQFSLQLSSMTTEDTAVYYCARTYRGYALDYWGQGTLVTVSS VL: DIVMTQTPLSLSVSPGEPASISCRASQDISNYLNWYLQKAGQSPRLLIYYTSRLQSGVPDRFSGSGSGTDFTLRIGRVEAEDAGIYFCQQANTLPLTFGQGTRLEVRR |  |  | ≤ 1 | 

More lines, main results first:

Kd [5] [nM] | Kd [6] [nM] | Kd [7] [nM] | Binder | also measured
< 10 |  |  | M3 mouse monoclonal antibody (anti-canine IL4R) (antibody, V domains shown, Mouse antibody purified from hybridoma culture; also called Clone M3) VH: QVQLKESGPGLVAPSQSLSITCTVSGFSLSRYSVHWVRQPPGKGLEWLGMIWGGGSTDYNSVFKSRLSISKDNSKSQVFLKMNSLQTDDTAMYYCARTYRGYALDYWGQGTSVTVSS VL: DIQMTQTTSSLSASLGDRVTISCRASQDISNYLNWYQQKPDGTVKLLIYYTSRLQSGVPSRFSGSGSGTDYCLTISNLEQEDIATYFCQQANTLPLTFGSGTKLELK | binding result [3]: no binding; binding result [4]: binds
 | < 10 |  | Murine-canine chimeric M3 antibody (canine IgG-B, canine kappa) (antibody, V domains shown, Murine VH and VL fused to canine constant heavy chain IgG-B and canine constant light chain (kappa); also called chimeric canine IgG-B (M3)) VH: QVQLKESGPGLVAPSQSLSITCTVSGFSLSRYSVHWVRQPPGKGLEWLGMIWGGGSTDYNSVFKSRLSISKDNSKSQVFLKMNSLQTDDTAMYYCARTYRGYALDYWGQGTSVTVSS VL: DIQMTQTTSSLSASLGDRVTISCRASQDISNYLNWYQQKPDGTVKLLIYYTSRLQSGVPSRFSGSGSGTDYCLTISNLEQEDIATYFCQQANTLPLTFGSGTKLELK | 
 | < 10 |  | Murine-canine chimeric M5 antibody (canine IgG-B, canine kappa) (antibody, V domains shown, Murine VH and VL fused to canine constant heavy chain IgG-B and canine constant light chain (kappa); also called chimeric canine IgG-B (M5)) VH: QVQLKESGPGLVAPSQSLSITCTVSGFSLSRYSVHWVRQPPGKGLEWLGMIWGGGSTDYNSVFKSRLSISKDNSKSQVFLKMNSLQTDDTAMYYCARTYRGYALDYWGQGTSVTVSS VL: DIQMTQTTSSLSASLGDRVTISCRASQDISNYLNWYQQKPDGTVKLLIYYTSRLQSGVPSRFSGSGSGTDYCLTISNLEQEDIATYFCQQANTLPLTFGSGTKLELK | 
< 10 |  |  | M9 mouse monoclonal antibody (anti-canine IL4R) (antibody, V domains shown, Mouse antibody purified from hybridoma culture; also called Clone M9) VH: DVQLVESGGGLVQPGGSRKLSCAASGFTFSSFGMHWVRQAPEKGLEWVAYIRSDSSTIYYADTVKGRFTISRDNPKNTLFLQMTSLRSEDTAMYYCARSGYYGSFSLTYWGQGTLVTVSA VL: EIVLTQSPTTMAASPGEKITITCSASSSVSSNYLHWYQQKPGFSPKLLIYRTSNLPSGVPARFFGSGSGTSYSLTIGTMEAEDVATYYCQQGSGMLTFGAGTKLELK | binding result [3]: no binding; binding result [4]: binds
 | < 10 |  | Murine-canine chimeric M9 antibody (canine IgG-B, canine kappa) (antibody, V domains shown, Murine VH and VL fused to canine constant heavy chain IgG-B and canine constant light chain (kappa); also called chimeric canine IgG-B (M9)) VH: DVQLVESGGGLVQPGGSRKLSCAASGFTFSSFGMHWVRQAPEKGLEWVAYIRSDSSTIYYADTVKGRFTISRDNPKNTLFLQMTSLRSEDTAMYYCARSGYYGSFSLTYWGQGTLVTVSA VL: EIVLTQSPTTMAASPGEKITITCSASSSVSSNYLHWYQQKPGFSPKLLIYRTSNLPSGVPARFFGSGSGTSYSLTIGTMEAEDVATYYCQQGSGMLTFGAGTKLELK | 
< 10 |  |  | M8 mouse monoclonal antibody (anti-canine IL4R) (antibody, V domains shown, Mouse antibody purified from hybridoma culture; also called Clone M8) VH: QVQLQQSGPELVKPGALVKISCKASGYTFTSYDINWVKQRPGQGLEWIGWIYPGDGSTKYNEKFKGKATLTADKSSSTAYMQLSSLTSEDSAVYFCARSSFVVWGAGTTVTVSS VL: DIQMTQSSSYLSVSLGGRVTITCKASDPINNWLAWYQQKPGNAPRLLISGATSLETGVPSRISGSGSGKDYSLSITSLQTEDIATYYCHQYWSIPYTFGGGTKLEIK | binding result [3]: no binding; binding result [4]: binds
 | < 10 |  | Murine-canine chimeric M8 antibody (canine IgG-B, canine kappa) (antibody, V domains shown, Murine VH and VL fused to canine constant heavy chain IgG-B and canine constant light chain (kappa); also called chimeric canine IgG-B (M8)) VH: QVQLQQSGPELVKPGALVKISCKASGYTFTSYDINWVKQRPGQGLEWIGWIYPGDGSTKYNEKFKGKATLTADKSSSTAYMQLSSLTSEDSAVYFCARSSFVVWGAGTTVTVSS VL: DIQMTQSSSYLSVSLGGRVTITCKASDPINNWLAWYQQKPGNAPRLLISGATSLETGVPSRISGSGSGKDYSLSITSLQTEDIATYYCHQYWSIPYTFGGGTKLEIK | 
